Source: patent US20220396632A1 (VERSEAU THERAPEUTICS, published 2022)

How the values were obtained:
[1] = target: T1, Recombinant human PSGL-1(ECD)-hFc1 (R&D Systems, Cat. 3345-PS) (human, UniProt Q14242 42-305); assay: Octet tandem; competitor 19L04
T1 construct: Bought; Gln42-Val295 counted on AAC50061; also called PSGL-1-Fc; PSGL-1-hFc1 chimera; not shown: human IgG1 Fc, Pro100-Lys330
T1 sequence: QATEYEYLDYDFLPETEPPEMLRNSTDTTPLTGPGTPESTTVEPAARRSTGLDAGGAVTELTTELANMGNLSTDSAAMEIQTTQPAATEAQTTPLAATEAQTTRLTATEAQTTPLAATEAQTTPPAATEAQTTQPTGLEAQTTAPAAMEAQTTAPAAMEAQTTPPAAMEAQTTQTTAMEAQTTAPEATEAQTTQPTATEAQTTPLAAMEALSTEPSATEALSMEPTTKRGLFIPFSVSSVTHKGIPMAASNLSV
Experimental: (§1) Antibody binning was performed by ForteBio Octet® using a tandem assay format, with anti-human IgG biosensor-immobilized PSGL-1(ECD)-hFc1 protein, binding of competitor mAb followed by analyte antibody. As competition controls, the same antibody was competed against itself, and mAb competition was performed bidirectionally.
(§2) Antibody binning by tandem octet was performed by immobilizing 10 ug/mL PSGL-1(ECD)-hFc1 (R&D Systems, Cat. #3345-PS) in PBS, pH 7.4, onto anti-human IgG capture biosensors (ForteBio, Cat. #18-5060), binding of 100 nM competitor antibody for 300 sec., followed by binding of 100 nM of analyte mAb for 300 s in kinetic buffer (0.1% BSA in PBS containing 0.02% tween 20 and 0.05% sodium azide, pH 7.4). Synagis (Johnson et al. (1997) J. Infect. Dis. 176:1215-1224) served as a negative control mAb for competition. An Fc quench step (0.25 mg/mL human IgG Fcl; BioXcell, Cat. #BE0096, in kinetic buffer) was included when human mAbs were tested to prevent high background from the antibodies binding to the anti-human IgG biosensor. Biosensor regeneration buffer consisted of 10 mM glycine, pH 2.0.

[2] = target: T1, Recombinant human PSGL-1(ECD)-hFc1 (R&D …); assay: Octet tandem; competitor 20G13
Experimental: as §1, §2

[3] = target: T1, Recombinant human PSGL-1(ECD)-hFc1 (R&D …); assay: blocking ELISA vs VISTA-Fc, pH 6.0
[4] = target: T1, Recombinant human PSGL-1(ECD)-hFc1 (R&D …); assay: Octet tandem; competitor 15A7
Experimental: as §1, §2

[5] = target: PSGL-1(ECD)-hFc1 M119A protein (Sino Biological) (human); assay: ELISA; against WT PSGL-1(ECD)-hFc1
Experimental: (§3) A typical ELISA experiment involved binding of a single concentration or serially diluted mAb in assay buffer (3% BSA in PBS containing 0.05% Tween®20, pH 7.4) onto BSA blocked high binding microtiter plate half-wells (Corning Cat. #3690), which contained PSGL-1 protein or streptavidin-immobilized biotin peptide. After incubation for 45 min. at 37° C., the plate was washed 3 times with wash buffer (PBS containing 0.05% Tween®20, pH 7.4), and an appropriate HRP-conjugated secondary antibody added (25 ul/well) (HRP goat anti-mouse or anti-human IgG). After 45 min. incubation at 37° C., the plate was washed and antibody bound to plate-immobilized target was determined at A450 nm using HRP substrate (3,3′5,5′-tetramethylbenzidine (TMB)). For each antibody, duplicate values were averaged and assay background subtracted.

[6] = target: PSGL-1(ECD)-hFc1 I121A protein (Sino Biological) (human); assay: ELISA; against WT PSGL-1(ECD)-hFc1
Experimental: as §3

[7] = target: T2, Biotin PSGL-1(105-125) peptide (human, N-terminal acetyl; C-terminal Lys-biotin); assay: ELISA; against WT PSGL-1(ECD)-hFc1
T2 peptide: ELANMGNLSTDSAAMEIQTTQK
Experimental: as §3

[8] = target: PSGL-1(ECD)-hFc1 S116A protein (Sino Biological) (human); assay: ELISA; against WT PSGL-1(ECD)-hFc1
Experimental: as §3

[9] = target: T1, Recombinant human PSGL-1(ECD)-hFc1 (R&D …); assay: Octet tandem; competitor 18K07
Experimental: as §1, §2

[10] = target: T3, PSGL-1(42-62) N-terminal peptide, sulfation state not told at the place (human, not fully specified; sulfation of Y46, Y48, Y51 not stated for these table columns); assay: mAb binding to PSGL-1(42-62)
T3 peptide: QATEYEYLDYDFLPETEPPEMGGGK

[11] = target: T1, Recombinant human PSGL-1(ECD)-hFc1 (R&D …); assay: Octet tandem; competitor 19J23
Experimental: as §1, §2

[12] = target: T1, Recombinant human PSGL-1(ECD)-hFc1 (R&D …); assay: Octet tandem; competitor 18F17
Experimental: as §1, §2

[13] = target: T1, Recombinant human PSGL-1(ECD)-hFc1 (R&D …); assay: blocking ELISA vs L-selectin-Fc
Experimental: (§4) A typical selectin blocking ELISA assay involved coating high binding half-well plates (Corning, Cat. #3690) with 2.5 ug/mL/25 ul per well of recombinant PSGL-1-Fc protein (R&D Systems, Cat #3345-PS) in PBS, pH 7.4, overnight at 4° C. […] Antibody (test and controls) was serially diluted (25 ul/well) in duplicate in assay buffer (3% BSA in wash buffer) into appropriate wells and the plate incubated for 45 min at 37° C. […] The plate was washed ×3 and HRP-conjugated streptavidin was added in assay buffer [25 ul per well; (Jackson Immunoresearch, Cat. #016-030-084)] and the plate incubated for 45 min at 37° C. […] For each antibody, an IC50 value was determined from sigmoidal fitted titration curves.

[14] = target: T1, Recombinant human PSGL-1(ECD)-hFc1 (R&D …); assay: blocking ELISA vs P-selectin-Fc
Experimental: as §4

[15] = target: T1, Recombinant human PSGL-1(ECD)-hFc1 (R&D …); assay: Octet tandem; competitor 19N05
Experimental: as §1, §2

[16] = target: PSGL-1(ECD)-hFc1 M119A protein (Sino Biological) (human); assay: ELISA, plate-bound peptide or protein
Experimental: as §3

[17] = target: PSGL-1(ECD)-hFc1 I121A protein (Sino Biological) (human); assay: ELISA, plate-bound peptide or protein
Experimental: as §3

[18] = target: T2, Biotin PSGL-1(105-125) peptide; assay: ELISA, plate-bound peptide or protein
Experimental: as §3

[19] = target: PSGL-1(ECD)-hFc1 S116A protein (Sino Biological) (human); assay: ELISA, plate-bound peptide or protein
Experimental: as §3

[20] = target: T1, Recombinant human PSGL-1(ECD)-hFc1 (R&D …); assay: Octet tandem; competitor 16E17
Experimental: as §1, §2

[21] = target: T4, Biotin PSGL-1(290-310) peptide (human, N-terminal acetyl; C-terminal Lys-biotin); assay: ELISA; against WT PSGL-1(ECD)-hFc1
T4 peptide: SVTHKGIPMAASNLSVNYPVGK
Experimental: as §3

[22] = target: T4, Biotin PSGL-1(290-310) peptide; assay: ELISA, plate-bound peptide or protein
Experimental: as §3

[23] = target: T1, Recombinant human PSGL-1(ECD)-hFc1 (R&D …); assay: ELISA, plate-immobilized protein
Human PSGL-1(ECD)-HIS = target: T5, Human PSGL-1(ECD)-HIS (human, UniProt Q14242 42-319); assay: ELISA, plate-immobilized protein
T5 construct: also called Human PSGL-1-His
T5 sequence: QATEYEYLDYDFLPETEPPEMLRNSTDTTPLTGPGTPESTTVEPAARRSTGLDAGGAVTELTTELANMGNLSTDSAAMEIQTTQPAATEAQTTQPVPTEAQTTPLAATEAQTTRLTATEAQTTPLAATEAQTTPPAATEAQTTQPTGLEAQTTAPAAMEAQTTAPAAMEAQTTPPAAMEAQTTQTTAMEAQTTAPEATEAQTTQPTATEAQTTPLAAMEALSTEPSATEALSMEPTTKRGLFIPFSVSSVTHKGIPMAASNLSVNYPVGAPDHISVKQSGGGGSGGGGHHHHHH

Sequence of PSGL-1(ECD)-hFc1 S116A protein (Sino Biological) (human) (chain, as listed by the source S116A S116A): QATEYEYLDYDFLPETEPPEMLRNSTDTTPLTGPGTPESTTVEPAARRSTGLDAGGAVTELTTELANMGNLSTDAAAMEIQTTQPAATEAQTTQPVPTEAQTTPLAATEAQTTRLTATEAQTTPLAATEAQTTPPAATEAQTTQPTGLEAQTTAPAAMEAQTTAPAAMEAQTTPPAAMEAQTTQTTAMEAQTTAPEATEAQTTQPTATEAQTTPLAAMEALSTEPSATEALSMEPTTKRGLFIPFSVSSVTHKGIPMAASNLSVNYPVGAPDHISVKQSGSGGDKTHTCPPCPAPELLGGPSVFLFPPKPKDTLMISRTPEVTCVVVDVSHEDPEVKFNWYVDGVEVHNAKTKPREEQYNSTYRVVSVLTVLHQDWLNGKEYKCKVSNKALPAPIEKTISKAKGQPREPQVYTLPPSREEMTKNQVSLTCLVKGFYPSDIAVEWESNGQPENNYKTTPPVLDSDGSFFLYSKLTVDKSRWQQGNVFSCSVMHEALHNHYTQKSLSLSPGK
Sequence of PSGL-1(ECD)-hFc1 I121A protein (Sino Biological) (human) (chain, as listed by the source I121A I121A): as the sequence (chain, as listed by the source S116A S116A) above, with A75S, I80A counted along it

| Binder | % binding of analyte mAb [1] [%] | % binding of analyte mAb [2] [%] | % binding of analyte mAb [4] [%] | % binding of analyte mAb [9] [%] | % binding of analyte mAb [11] [%] | % binding of analyte mAb [12] [%] | % binding of analyte mAb [15] [%] | % binding of analyte mAb [20] [%] | further results |
| --- | --- | --- | --- | --- | --- | --- | --- | --- | --- |
| 15A7 (antibody, V domains shown, Control mAb, recombinant; also called h15A7; 15A17) VH: EVQLVESGGGLVQPGGSLRLSCAASGFTFSSFGMHWVRQAPGKGLEWVAYINGGSSTIFYANAVKGRFTISRDNAKNTLYLQMNSLRAEDTAVYYCARYASYGGGAMDYWGQGTLVTVSS VL: DIQMTQSPSSLSASVGDRVTITCRSSQSIVHNDGNTYFEWYQQKPGKAPKLLIYKVSNRFSGVPSRFSGSGSGTHFTLTISSLQPEDFATYYCFQGSYVPLTFGQGTKVEIK | 48 | 15.1 | 28.3 | 91.5 | 94.3 | 86.6 | 46.2 | 56.2 | % max Block [3]: 0%; EC50/EC50WTprot [5]: ~30 fold; EC50/EC50WTprot [6]: ~60 fold; EC50/EC50WTprot [7]: 7.18 fold; EC50/EC50WTprot [8]: 0.78 fold; binding result [10]: no binding; % max Block [13]: 0%; % max Block [14]: 0%; EC50 [16]: ~10 nM; EC50 [17]: ~20 nM; EC50 [18]: 4.31 nM; EC50 [19]: 0.25 nM |
| 19J23 (antibody, V domains shown, Non-functional anti-PSGL-1 mAb (Verseau); only variable domains given) VH: EVKLVESGGGLVQPGGSLSLSCAASGFTFTDYYMSWVRQPPGKALEWLALIRNKANGYTTEYSASVKGRFTISRDDSQSILYLQVNALRAEDVATYYCARPWDYWGQGTTLTVSS VL: not shown | 68.9 | 55.9 | 84.9 | 100 | 29.2 | 52.1 | 76.6 | 93.3 | EC50/EC50WTprot [21]: 3.1 fold; EC50 [22]: 2.19 nM; binding result [23]: no binding (tested: Log M -7.4 (about 40 nM)); EC50 (read off the curve) (Human PSGL-1(ECD)-HIS): ~0.9 nM |
